Source: paper PMC10746525, “Interaction between the mitochondrial adaptor MIRO and the motor adaptor TRAK” (The Journal of Biological Chemistry, 2023)
Changes are numbered by the printed parent chain.

B1: MBP-MIRO1_(1-180) (domain or fragment, human, UniProt Q8IXI2 1-180, looked up)
chain: MKKDVRILLVGEPRVGKTSLIMSLVSEEFPEEVPPRAEEITIPADVTPERVPTHIVDYSEAEQSDEQLHQEISQANVICIVYAVNNKHSIDKVTSRWIPLINERTDKDSRLPLILVGNKSDLVEYSSMETILPIMNQYTEIETCVECSAKNLKNISELFYYAQKAVLHPTGPLYCPEEKE
notes: human MIRO1, residues 1-180 (nGTPase); Cloned into pMAL-c6T; also called nGTPase of MIRO1 fused to MBP; source: E. coli ArcticExpress(DE3), purified (Strep-Tactin, MonoQ); not shown: MBP, N-terminal, kept
B2: MBP-TRAK1_(342-431) (domain or fragment, human, UniProt Q9UPV9 342-431, looked up)
chain: EAQEELKNLRNKTMPNTTSRRYHSLGLFPMDSLAAEIEGTMRKELQLEEAESPDITHQKRVFETVRNINQVVKQRSLTPSPMNIPGSNQS
notes: GCN4 of m5 replaced with MBP; Cloned into pMAL-c6T; source: E. coli ArcticExpress(DE3), purified (amylose, Strep-Tactin); not shown: MBP, N-terminal, kept
B3: MBP-TRAK1_(342-431) ^400KR^401 to AA (domain or fragment, human, UniProt Q9UPV9 342-431, looked up)
chain: B2 chain with K59A, R60A
notes: source: E. coli ArcticExpress(DE3), purified (amylose, Strep-Tactin); not shown: MBP, N-terminal, kept
B4: MIRO1_(1-591) (domain or fragment, human, UniProt Q8IXI2 1-591, looked up)
chain: MKKDVRILLVGEPRVGKTSLIMSLVSEEFPEEVPPRAEEITIPADVTPERVPTHIVDYSEAEQSDEQLHQEISQANVICIVYAVNNKHSIDKVTSRWIPLINERTDKDSRLPLILVGNKSDLVEYSSMETILPIMNQYTEIETCVECSAKNLKNISELFYYAQKAVLHPTGPLYCPEEKEMKPACIKALTRIFKISDQDNDGTLNDAELNFFQRICFNTPLAPQALEDVKNVVRKHISDGVADSGLTLKGFLFLHTLFIQRGRHETTWTVLRRFGYDDDLDLTPEYLFPLLKIPPDCTTELNHHAYLFLQSTFDKHDLDRDCALSPDELKDLFKVFPYIPWGPDVNNTVCTNERGWITYQGFLSQWTLTTYLDVQRCLEYLGYLGYSILTEQESQASAVTVTRDKKIDLQKKQTQRNVFRCNVIGVKNCGKSGVLQALLGRNLMRQKKIREDHKSYYAINTVYVYGQEKYLLLHDISESEFLTEAEIICDVVCLVYDVSNPKSFEYCARIFKQHFMDSRIPCLIVAAKSDLHEVKQEYSISPTDFCRKHKMPPPQAFTCNTADAPSKDIFVKLTTMAMYPHVTQADLKSST
notes: Cloned into pRSFDuet-1; also called mitochondrial Rho GTPase 1, near full-length construct lacking the C-terminal transmembrane helix; source: E. coli ArcticExpress(DE3), purified (Ni-NTA, Strep-Tactin)
B5: MIRO1_(177-591) (domain or fragment, human, UniProt Q8IXI2 177-591, looked up)
chain: EEKEMKPACIKALTRIFKISDQDNDGTLNDAELNFFQRICFNTPLAPQALEDVKNVVRKHISDGVADSGLTLKGFLFLHTLFIQRGRHETTWTVLRRFGYDDDLDLTPEYLFPLLKIPPDCTTELNHHAYLFLQSTFDKHDLDRDCALSPDELKDLFKVFPYIPWGPDVNNTVCTNERGWITYQGFLSQWTLTTYLDVQRCLEYLGYLGYSILTEQESQASAVTVTRDKKIDLQKKQTQRNVFRCNVIGVKNCGKSGVLQALLGRNLMRQKKIREDHKSYYAINTVYVYGQEKYLLLHDISESEFLTEAEIICDVVCLVYDVSNPKSFEYCARIFKQHFMDSRIPCLIVAAKSDLHEVKQEYSISPTDFCRKHKMPPPQAFTCNTADAPSKDIFVKLTTMAMYPHVTQADLKSST
notes: Cloned into pETDuet-1; As purified it held 37.0% GDP and 63.0% GTP; samples exchanged with GDP or GTP were also used; also called MIRO1 EF-hands and cGTPase; source: E. coli ArcticExpress(DE3), purified (Ni-NTA, SourceQ flowthrough)
B6: TRAK1_(394-434) (peptide, UniProt Q9UPV9 394-434, looked up)
peptide: PDITHQKRVFETVRNINQVVKQRSLTPSPMNIPGSNQSSAM
notes: Cloned into pMAL-c6T; also called TRAK1 peptide narrowly encompassing CR2; not shown: 6xHis-MBP, N-terminal, cleaved
B7: TRAK1_(99-532) (domain or fragment, human, UniProt Q9UPV9 99-532, looked up)
chain: AERVGQMTKTYNDIDAVTRLLEEKERDLELAARIGQSLLKKNKTLTERNELLEEQVEHIREEVSQLRHELSMKDELLQFYTSAAEESEPESVCSTPLKRNESSSSVQNYFHLDSLQKKLKDLEEENVVLRSEASQLKTETITYEEKEQQLVNDCVKELRDANVQIASISEELAKKTEDAARQQEEITHLLSQIVDLQKKAKACAVENEELVQHLGAAKDAQRQLTAELRELEDKYAECMEMLHEAQEELKNLRNKTMPNTTSRRYHSLGLFPMDSLAAEIEGTMRKELQLEEAESPDITHQKRVFETVRNINQVVKQRSLTPSPMNIPGSNQSSAMNSLLSSCVSTPRSSFYGSDIGNVVLDNKTNSIILETEAADLGNDERSKKPGTPGTPGSHDLETALRRLSLRRENYLSERRFFEEEQERKLQELAEKGE
notes: Cloned into pRSFDuet-1; codon-optimised synthetic cDNA; source: E. coli ArcticExpress(DE3), purified (Strep-Tactin, Ni-NTA)

Columns and labels:
[1] = target: the molecule itself; assay: mass photometry; Refeyn TwoMP, 125-150 nM protein, 100 mM NaCl, 50 μM MgCl2, 50 μM GTP with 1 mM EGTA or 100 μM CaCl2
MIRO1_(177-591) E328A = target: T1, MIRO1_(177-591) E328A (human, UniProt Q8IXI2 177-591, E328A); assay: ITC; VP-ITC, 25 °C; ITC buffer (20 mM Hepes pH 7.5, 400 mM NaCl, 1 mM MgCl2, 5% w/v sucrose, 0.1 μM GTP) with 5 mM EGTA; the binder of each row in the syringe; conditions: both partners purified
T1 construct: source: E. coli ArcticExpress(DE3), purified (Ni-NTA, SourceQ flowthrough)

MIRO1_(177-591) [2] = target: B5; assay: as above; conditions: both partners purified
MIRO1_(177-591) E208A = target: T2, MIRO1_(177-591) E208A (human, UniProt Q8IXI2 177-591, E208A); assay: as above; conditions: both partners purified
T2 construct: source: E. coli ArcticExpress(DE3), purified (Ni-NTA, SourceQ flowthrough)

MIRO1_(177-591) [3] = target: B5; assay: ITC; VP-ITC, 25 °C; ITC buffer (20 mM Hepes pH 7.5, 400 mM NaCl, 1 mM MgCl2, 5% w/v sucrose, 0.1 μM GTP) with 50 μM CaCl2; MIRO1_(177-591) in the syringe, TRAK1 construct in the cell; conditions: both partners purified
MBP-TRAK1_(342-431) [4] = target: B2; assay: ITC; VP-ITC, 25 °C; ITC buffer (20 mM Hepes pH 7.5, 400 mM NaCl, 1 mM MgCl2, 5% w/v sucrose, 0.1 μM GTP) with 5 mM EGTA; the binder of each row in the syringe; conditions: both partners purified
MBP-TRAK1_(342-431) [5] = target: B2; assay: ITC; VP-ITC, 25 °C; ITC buffer (20 mM Hepes pH 7.5, 400 mM NaCl, 1 mM MgCl2, 5% w/v sucrose, 0.1 μM GTP) with 50 μM CaCl2; MIRO1_(177-591) in the syringe, TRAK1 construct in the cell; conditions: both partners purified
MIRO1_(1-591) = target: B4; assay: co-sedimentation; 5-30% glycerol gradient, proteins mixed at 4 μM each in 20 mM Hepes pH 7.5, 500 mM NaCl, 1 mM MgCl2, 1 mM CaCl2, 1 mM DTT, 0.1 μM GTP; 165,000g, 16 h, 4 °C; fractions on SDS-PAGE; conditions: both partners purified

B1: binds [1].

For B2, the binding result (MIRO1_(177-591) E328A) was “binds”, the Kd (MIRO1_(177-591) [2]) was 8.77 µM and the binding result (MIRO1_(177-591) E208A) was “binds”. For the same binder, the Kd (MIRO1_(177-591) [3]) was 2.76 µM.

B3: binds (MIRO1_(177-591) [2]).

B4: binds [1].

For B5, the “stoichiometry N” value (MBP-TRAK1_(342-431) [4]) was 1.09 and the “stoichiometry N” value (MBP-TRAK1_(342-431) [5]) was 1.11.

B6: binds (MIRO1_(177-591) [2]).

B7: binds (MIRO1_(1-591)).
